Assay results published in patent publication US20240423474A1, “SYSTEM AND METHOD FOR INTRAOPERATIVE LIFETIME IMAGING” (The General Hospital Corporation, priority 2021, published 2024).

What was measured:
[1] = several recent clinical trials; cited from earlier work
FaDu cells = experiment: Confocal FLIM of FaDu cells incubated with imaging probes; format: cell-based; details: 100 μg probe, 2 hours incubation
Protocol: Also, a […] 8 FALCON (Leica, Germany) FLIM system was used for NIR FLIM of 10-μm thin tissue sections (murine tumors and clinical specimens). Imaging was performed using 730 nm excitation with 750 nm notch filter and detected with a HyD R detector operating within 770-850 nm range. A 10×, 0.4 NA objective was used for image collection and digital images with 512×512 pixels (2.275 μm/pixel), 4 line repetitions and 4 line averages were obtained. TD data was collected using time-correlated single photon counting.
For in vitro experiments, FaDu cells were plated at 0.2×10^6 cells per well in a 12-well plate containing poly-D-lysine coated glass coverslips and were allowed to adhere to the coverslips for 24 hours. […] After probe incubation, cells were fixed in 4% para-formaldehyde (PFA) and mounted with ProLong Gold Antifade medium (ThermoFisher Scientific, Waltham, Massachusetts, United States) for confocal FLIM.
For the FLIM and IHC image analysis, the FALCON/FLIM software was used to collect and analyze the FLIM data. Lifetime values at each pixel location was calculated by using a single exponential fitting of the fluorescence decay curves. […] IHC image ROIs were analyzed by color deconvolution using the IHC Tool Box in ImageJ (NIH, Version 1.48u) to extract EGFR positive pixels within each ROI. […] Corresponding FLIM image ROIs were analyzed by averaging FLT values above 0.3 ns. […]

[2] = Widefield FLT of probes in culture media and stock solution in PBS; format: physicochemical
Text: In accordance with one particular and non-limiting study, for widefield time-domain imaging, a system akin that of FIG. 1 was used that included a Supercontinuum laser and tunable filter (EXR-20, SuperK Varia, NKT Photonics, 80 MHz repetition rate; 400-850 nm tuning range) providing 770±30 nm excitation, a multimode fiber (Thorlabs, Newton, New Jersey, United States) delivering light to the sample, and a gated intensified CCD (LaVision, Picostar, 500 V gain, 0.1 to 1 second integration time, 150 ps steps, 256×344 pixels after 4×4 hardware binning). A digital micromirror device was used to expand the output of the optical fiber and delivered to the surface of the animal. The average total power across the illumination area (approximately 6×8-cm) was 10 to 20 mW. Fluorescence was collected in reflectance mode using an 835/70-nm band-pass filter. TD fluorescence imaging was performed with a gate width of 600 ps and 150 ps steps for a total duration of approximately 6 ns per laser duty cycle of 12.5 ns. […] Animals were sacrificed after imaging and tumors were immediately frozen in optimal cutting temperature (OCT) compound for fluorescence lifetime imaging microscopy (FLIM), histology and immunohistochemical (IHC) staining.
For the widefield TD data analysis, TD fluorescence images were analyzed in MATLAB (MathWorks, Natick, Massachusetts, United States) using a custom software. […]

panitumumab-IRDye800CW: conjugate of the FDA approved therapeutic antibody for the epidermal growth factor receptor (EGFR), panitumumab, with IRdye800CW, an NIR dye
safety in humans [1]: safe for human use
probe uptake in cells (FaDu cells): higher probe uptake
FLT in culture media ([2]; culture media collected after incubation with cancer cells): 0.58 ns
FLT of stock solution in PBS ([2]; stock solution in PBS): 0.58 ns
